# Molecular target: Methanocaldococcus jannaschii SufB* (N-terminal His6 tagged) (Methanocaldococcus jannaschii)
# Assay: pull-down
substance,measurement,value
Methanocaldococcus jannaschii SufC (untagged) (natural protein),stoichiometry N,1

# Source: doi:10.1101/2024.03.20.586028
